Data on 36 variants can be found in the Human Domainome abundance scans (Beltran et al. 2025).

± gives the uncertainty stated by the source.

B1: Retinoic acid receptor RXR-alpha, residues 132 to 208; numbered along this chain, P19793 (parent)
chain: KHICAICGDRSSGKHYGVYSCEGCKGFFKRTVRKDLTYTCRDNKDCLIDKRQRNRCQYCRYQKCLAMGMKREAVQEE

Variants of B1 are the subject of the series. Nature of the series: abundance fitness (aPCA) (normalised: wild type 0, dead -1); higher = more abundant; growth selection in yeast, the domain comes from the species named. Conditions: Homo sapiens.
As for KHICAICSDRSSGKHYGVYSCEGCKGFFKRTVRKDLTYTCRDNKDCLIDKRQRNRCQYCRYQKCLAMGMKREAVQEE, the abundance fitness is -0.041 ± 0.03.
To KHICAICRDRSSGKHYGVYSCEGCKGFFKRTVRKDLTYTCRDNKDCLIDKRQRNRCQYCRYQKCLAMGMKREAVQEE belongs -0.125 ± 0.033; to KHICAICPDRSSGKHYGVYSCEGCKGFFKRTVRKDLTYTCRDNKDCLIDKRQRNRCQYCRYQKCLAMGMKREAVQEE, -0.227 ± 0.036; to KHICAICADRSSGKHYGVYSCEGCKGFFKRTVRKDLTYTCRDNKDCLIDKRQRNRCQYCRYQKCLAMGMKREAVQEE, -0.027 ± 0.037.
Consider KHICAICNDRSSGKHYGVYSCEGCKGFFKRTVRKDLTYTCRDNKDCLIDKRQRNRCQYCRYQKCLAMGMKREAVQEE, for which the abundance fitness is -0.017 ± 0.035.
As for KHICIICGDRSSGKHYGVYSCEGCKGFFKRTVRKDLTYTCRDNKDCLIDKRQRNRCQYCRYQKCLAMGMKREAVQEE, the abundance fitness amounted to 0.055 ± 0.084.
For the variant KHICWICGDRSSGKHYGVYSCEGCKGFFKRTVRKDLTYTCRDNKDCLIDKRQRNRCQYCRYQKCLAMGMKREAVQEE, the abundance fitness stood at 0.03 ± 0.042.
For KHICLICGDRSSGKHYGVYSCEGCKGFFKRTVRKDLTYTCRDNKDCLIDKRQRNRCQYCRYQKCLAMGMKREAVQEE, the abundance fitness worked out at 0.037 ± 0.037.
Take KHICGICGDRSSGKHYGVYSCEGCKGFFKRTVRKDLTYTCRDNKDCLIDKRQRNRCQYCRYQKCLAMGMKREAVQEE: the abundance fitness was -0.045 ± 0.027.
To KHICFICGDRSSGKHYGVYSCEGCKGFFKRTVRKDLTYTCRDNKDCLIDKRQRNRCQYCRYQKCLAMGMKREAVQEE belongs 0.171 ± 0.065; to KHICEICGDRSSGKHYGVYSCEGCKGFFKRTVRKDLTYTCRDNKDCLIDKRQRNRCQYCRYQKCLAMGMKREAVQEE, 0.04 ± 0.036; to KHICDICGDRSSGKHYGVYSCEGCKGFFKRTVRKDLTYTCRDNKDCLIDKRQRNRCQYCRYQKCLAMGMKREAVQEE, 0.016 ± 0.044.
To KHICSICGDRSSGKHYGVYSCEGCKGFFKRTVRKDLTYTCRDNKDCLIDKRQRNRCQYCRYQKCLAMGMKREAVQEE belongs 0.02 ± 0.036; to KHICRICGDRSSGKHYGVYSCEGCKGFFKRTVRKDLTYTCRDNKDCLIDKRQRNRCQYCRYQKCLAMGMKREAVQEE, 0.044 ± 0.032; to KHICQICGDRSSGKHYGVYSCEGCKGFFKRTVRKDLTYTCRDNKDCLIDKRQRNRCQYCRYQKCLAMGMKREAVQEE, 0.036 ± 0.046.
Under KHICNICGDRSSGKHYGVYSCEGCKGFFKRTVRKDLTYTCRDNKDCLIDKRQRNRCQYCRYQKCLAMGMKREAVQEE stands -0.022 ± 0.055.
For the variant KHICTICGDRSSGKHYGVYSCEGCKGFFKRTVRKDLTYTCRDNKDCLIDKRQRNRCQYCRYQKCLAMGMKREAVQEE, the abundance fitness is 0.045 ± 0.049.
To KHICMICGDRSSGKHYGVYSCEGCKGFFKRTVRKDLTYTCRDNKDCLIDKRQRNRCQYCRYQKCLAMGMKREAVQEE belongs 0.036 ± 0.048; to KHICPICGDRSSGKHYGVYSCEGCKGFFKRTVRKDLTYTCRDNKDCLIDKRQRNRCQYCRYQKCLAMGMKREAVQEE, -0.074 ± 0.052.
To KHICVICGDRSSGKHYGVYSCEGCKGFFKRTVRKDLTYTCRDNKDCLIDKRQRNRCQYCRYQKCLAMGMKREAVQEE belongs -0.054 ± 0.033; to KHICHICGDRSSGKHYGVYSCEGCKGFFKRTVRKDLTYTCRDNKDCLIDKRQRNRCQYCRYQKCLAMGMKREAVQEE, 0.044 ± 0.063.
Under KHIYAICGDRSSGKHYGVYSCEGCKGFFKRTVRKDLTYTCRDNKDCLIDKRQRNRCQYCRYQKCLAMGMKREAVQEE stands -0.875 ± 0.099; under KHICATCGDRSSGKHYGVYSCEGCKGFFKRTVRKDLTYTCRDNKDCLIDKRQRNRCQYCRYQKCLAMGMKREAVQEE, -0.064 ± 0.033; under KHICAYCGDRSSGKHYGVYSCEGCKGFFKRTVRKDLTYTCRDNKDCLIDKRQRNRCQYCRYQKCLAMGMKREAVQEE, -0.881 ± 0.085.
Take KHICAKCGDRSSGKHYGVYSCEGCKGFFKRTVRKDLTYTCRDNKDCLIDKRQRNRCQYCRYQKCLAMGMKREAVQEE: the abundance fitness is -0.881 ± 0.098.
To KHICARCGDRSSGKHYGVYSCEGCKGFFKRTVRKDLTYTCRDNKDCLIDKRQRNRCQYCRYQKCLAMGMKREAVQEE belongs -0.687 ± 0.065; to KHICADCGDRSSGKHYGVYSCEGCKGFFKRTVRKDLTYTCRDNKDCLIDKRQRNRCQYCRYQKCLAMGMKREAVQEE, -0.729 ± 0.097; to KHICASCGDRSSGKHYGVYSCEGCKGFFKRTVRKDLTYTCRDNKDCLIDKRQRNRCQYCRYQKCLAMGMKREAVQEE, -0.438 ± 0.036.
Under KHICAHCGDRSSGKHYGVYSCEGCKGFFKRTVRKDLTYTCRDNKDCLIDKRQRNRCQYCRYQKCLAMGMKREAVQEE stands -0.731 ± 0.072.
With KHICAQCGDRSSGKHYGVYSCEGCKGFFKRTVRKDLTYTCRDNKDCLIDKRQRNRCQYCRYQKCLAMGMKREAVQEE, the abundance fitness is -0.909 ± 0.11.
To KHICACCGDRSSGKHYGVYSCEGCKGFFKRTVRKDLTYTCRDNKDCLIDKRQRNRCQYCRYQKCLAMGMKREAVQEE belongs 0.008 ± 0.048.
To KHICAGCGDRSSGKHYGVYSCEGCKGFFKRTVRKDLTYTCRDNKDCLIDKRQRNRCQYCRYQKCLAMGMKREAVQEE belongs -0.386 ± 0.068.
Regarding KHICAMCGDRSSGKHYGVYSCEGCKGFFKRTVRKDLTYTCRDNKDCLIDKRQRNRCQYCRYQKCLAMGMKREAVQEE, the abundance fitness was -0.038 ± 0.039.
Under KHICANCGDRSSGKHYGVYSCEGCKGFFKRTVRKDLTYTCRDNKDCLIDKRQRNRCQYCRYQKCLAMGMKREAVQEE stands -0.439 ± 0.048; under KHICAACGDRSSGKHYGVYSCEGCKGFFKRTVRKDLTYTCRDNKDCLIDKRQRNRCQYCRYQKCLAMGMKREAVQEE, -0.145 ± 0.038.
To KHICALCGDRSSGKHYGVYSCEGCKGFFKRTVRKDLTYTCRDNKDCLIDKRQRNRCQYCRYQKCLAMGMKREAVQEE belongs -0.124 ± 0.03.
